# Assay results from PMC10954620.
# Target: OmcS nanowires (cytochrome OmcS filaments of Geobacter sulfurreducens) (G. sulfurreducens (endogenous in strain ΔomcZ)) (UniProt Q74A86)
# Test: NMR titration; 1D 1H NMR chemical shift perturbation of the heme methyl signals of oxidized PpcA-E with and without OmcS nanowires, single point at 1:4 heme ratio periplasmic cytochrome:OmcS; 50 mM potassium phosphate with KCl (ionic strength 150 mM), pH 7, 2H2O; 298 K, 600 MHz
# Chain of UniProt Q74A86 (Q74A86 26-432, stated change not applied): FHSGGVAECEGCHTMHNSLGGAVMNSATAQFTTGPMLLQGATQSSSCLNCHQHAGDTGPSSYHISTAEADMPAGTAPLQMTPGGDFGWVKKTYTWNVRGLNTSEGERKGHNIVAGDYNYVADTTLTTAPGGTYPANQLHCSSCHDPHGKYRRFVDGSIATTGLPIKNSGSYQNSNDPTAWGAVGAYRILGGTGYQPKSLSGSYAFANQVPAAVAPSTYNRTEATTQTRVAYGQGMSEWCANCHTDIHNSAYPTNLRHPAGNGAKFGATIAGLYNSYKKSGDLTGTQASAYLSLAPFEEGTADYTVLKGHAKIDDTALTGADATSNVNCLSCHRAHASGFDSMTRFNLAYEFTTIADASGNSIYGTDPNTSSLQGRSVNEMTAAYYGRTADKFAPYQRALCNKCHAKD
substance,measurement,value
Periplasmic triheme cytochrome PpcA (natural protein),chemical shift change of heme methyls (Δδ),< 0.04 ppm
Periplasmic triheme cytochrome PpcD (natural protein),chemical shift change of heme methyls (Δδ),< 0.04 ppm
Periplasmic triheme cytochrome PpcB (natural protein),chemical shift change of heme methyls (Δδ),< 0.04 ppm
Periplasmic triheme cytochrome PpcE (natural protein),chemical shift change of heme methyls (Δδ),< 0.04 ppm
